In patent US9587033:

B1: full length Tnk1 (72 kDa) (protein)
chain: MLPEAGSLWLLKLLRDIQLAQFYWPILEELNVTRPEHFDFVKPEDLDGIGMGRPAQRRLSEALKRLRSGPKSKNWVYKILGGFAPEHKEPTLPSDSPRHLPEPEGGLKCLIPEGAVCRGELLGSGCFGVVHRGLWTLPSGKSVPVAVKSLRVGPEGPMGTELGDFLREVSVMMNLEHPHVLRLHGLVLGQPLQMVMELAPLGSLHARLTAPAPTPPLLVALLCLFLRQLAGAMAYLGARGLVHRDLATRNLLLASPRTIKVADFGLVRPLGGARGRYVMGGPRPIPYAWCAPESLRHGAFSSASDVWMFGVTLWEMFSGGEEPWAGVPPYLILQRLEDRARLPRPPLCSRALYSLALRCWAPHPADRPSFSHLEGLLQEAGPSEACCVRDVTEPGALRMETGDPITVIEGSSSFHSPDSTIWKGQNGRTFKVGSFPASAVTLADAGGLPATRPVHRGTPARGDQHPGSIDGDRKKANLWDAPPARGQRRNMPLERMKGISRSLESVLSLGPRPTGGGSSPPEIRQARAVPQGPPGLPPRPPLSSSSPQPSQPSRERLPWPKRKPPHNHPMGMPGARKAAALSGGLLSDPELQRKIMEVELSVHGVTHQECQTALGATGGDVVSAIRNLKVDQLFHLSSRSRADCWRILEHYQWDLSAASRYVLARP

Key:
Grb2 = Grb2 (UniProt P62993)

Sequence of Grb2, P62993 (P62993 whole entry, looked up): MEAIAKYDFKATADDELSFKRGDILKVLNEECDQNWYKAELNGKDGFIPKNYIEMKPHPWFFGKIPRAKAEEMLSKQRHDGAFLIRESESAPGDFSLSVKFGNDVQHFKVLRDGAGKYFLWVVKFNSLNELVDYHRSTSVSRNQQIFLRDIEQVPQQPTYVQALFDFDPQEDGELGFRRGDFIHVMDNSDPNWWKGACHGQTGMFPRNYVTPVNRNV

| Molecule | in vitro PTK activity assay (Y-phosphorylation of Grb2) (Grb2) | in vitro PTK activity assay (Y-phosphorylation of Grb2) (Grb2, P62993) |
| --- | --- | --- |
| 60 kDa truncated Tnk1-C17ORF61 fusion protein (tTnk1) | The t-Tnk1 showed none or weak Y-phosphorylation of Grb2 |  |
| B1 |  | Tnk1 from T47D or K562 Y-phosphorylated Grb2 |
